Measurements as given in PMC7982548 (The Journal of Biological Chemistry, 2005).
Where two headings read alike, the source gives them in different places.

Tests used:
[1] = target: 6-amino acid model peptide substrate ([…]); experiment: SPR
ITC [2] = target: the molecule itself; experiment: ITC
SEC = target: the molecule itself; experiment: SEC
ITC [3] = target: the molecule itself; experiment: ITC; remark: listed apart in the source

B1: full-length SARS coronavirus 3C-like proteinase (enzyme)
chain: SGFRKMAFPSGKVEGCMVQVTCGTTTLNGLWLDDTVYCPRHVICTAEDMLNPNYEDLLIRKSNHSFLVQAGNVQLRVIGHSMQNCLLRLKVDTSNPKTPKYKFVRIQPGQTFSVLACYNGSPSGVYQCAMRPNHTIKGSFLNGSCGSVGFNIDYDCVSFCYMHHMELPTGVHAGTDLEGKFYGPFVDRQTAQAAGTDTTITLNVLAWLYAAVINGDRWFLNRFTTTLNDFNLVAMKYNYEPLTQDHVDILGPLSAQTGIAVLDMCAALKELLQNGMNGRTILGSTILEDEFTPFDVVRQCSGVTFQ
[1]
  Kd: ~152 µM
ITC [2]
  Kd: 227 ± 34 µM
  dH: -8.28 ± 0.103 kcal/mol

B2: N-terminal deleted SARS 3CL^pro (residues 8-303) (domain or fragment)
chain: FPSGKVEGCMVQVTCGTTTLNGLWLDDTVYCPRHVICTAEDMLNPNYEDLLIRKSNHSFLVQAGNVQLRVIGHSMQNCLLRLKVDTSNPKTPKYKFVRIQPGQTFSVLACYNGSPSGVYQCAMRPNHTIKGSFLNGSCGSVGFNIDYDCVSFCYMHHMELPTGVHAGTDLEGKFYGPFVDRQTAQAAGTDTTITLNVLAWLYAAVINGDRWFLNRFTTTLNDFNLVAMKYNYEPLTQDHVDILGPLSAQTGIAVLDMCAALKELLQNGMNGRTILGSTILEDEFTPFDVVRQCSGVTFQ
SEC
  dimer/monomer ratio at 1 mg/ml: 0.65
  dimer/monomer ratio at 2 mg/ml: 0.66
  dimer/monomer ratio at 7 mg/ml: 0.8
ITC [2]
  Kd: 262 ± 15 µM
  dH: -6.89 ± 0.25 kcal/mol
ITC [3]
  Kd: 261 ± 15 µM
